± gives the uncertainty stated by the source.

This series in a line: amyloid nucleation score (Sup35N fusion, yeast selection) (log enrichment); library NNK2; higher = more nucleation; inactive = no reads after selection. The procedure, abridged:
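The nucleation score is a DiMSum log enrichment of output over input reads, centred on the mode score of non-aggregating sequences. Sequences under 100 input reads were excluded, and reads came from Illumina sequencing of plasmid inserts. Psi-negative yeast expressing Sup35N fused to peptides of 20 random codons were induced with 100 μM copper sulfate for 24 hours and grown 7 days at 30°C on medium lacking adenine and uracil. Random libraries had three technical output replicates.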
SAPYLIMLRLDSCACGDVF showed an amyloid nucleation score of 2.01 ± 0.083.

In turn, IADIVQGSGVAT showed an amyloid nucleation score of -0.178 ± 0.26.

Turning to LIVSAALRYNKDLLWIS, the amyloid nucleation score was -0.004 ± 0.39.

ETLPLNIILYACGEPHWFLL displayed an amyloid nucleation score of -0.407 ± 0.29.

For TCELYESHVGTFLHVSSNGT, the amyloid nucleation score amounted to 1.23 ± 0.12.

Regarding VMDLDAGTCWCISISGLTVR, the amyloid nucleation score was determined as 0.533 ± 0.35.

Substance RRIVGFFANDRTLIYLVGYI had an amyloid nucleation score of -0.902 ± 0.49.

FRFFCHISMNLGTLWRLDCL gave an amyloid nucleation score of -0.405 ± 0.44.

Consider NKLWFWMGHTMSVEFDLIDN, for which the amyloid nucleation score entry was “inactive”.

On to SNWFLWHTSTRFMIKENIMY, for which the amyloid nucleation score amounted to 0.516 ± 0.74.

On to YYFKFNSS, for which the amyloid nucleation score came out at 3.65 ± 0.12.

As to YRFVLVRNKVSYH, the amyloid nucleation score is -0.827 ± 0.33.

CGLVLVIRVYITSLYNSRFM displayed an amyloid nucleation score of 1.49 ± 0.14.

The substance EDRVCAYLNRKYCRYLGHSM gave an amyloid nucleation score of 1.29 ± 0.35.

Take PIFSSKLSGRGR: the amyloid nucleation score is -0.059 ± 0.55.

YEVGHPYFDDNCRICSFWWK: the amyloid nucleation score was 1.82 ± 0.12.

The substance LEMFYRVPLPRCKTYLQFRC came in with an amyloid nucleation score of 0.471 ± 0.62.

Turning to ATQVMMGVAEYACLYNCTHM, the amyloid nucleation score turned out to be 8.223 ± 0.078.

Substance TWRLKVVGQRQTFSKFTGLG showed an amyloid nucleation score of -0.133 ± 0.35.

In the case of DFCCWCPFCYVSWYEGIVMI, the amyloid nucleation score was determined as 0.305 ± 1.

MNFCGNRCPFSLYIPWTACV yielded an amyloid nucleation score of -0.664 ± 1.1.

FLIFINMGIRRIRHV: the amyloid nucleation score is -1.37 ± 0.75.

SWHQKSELKTCWSLAIQYHT registered an amyloid nucleation score of -0.191 ± 0.65.

In the case of RLCWWLVWS, the amyloid nucleation score was determined as 0.166 ± 0.76.

TRYYMYIRDVH came in with an amyloid nucleation score of -0.533 ± 0.44.

On to HCSCVKNSTSTDIEE, for which the amyloid nucleation score result is “inactive”.

Substance SLVLLNRSANWIDLLNKQQD came in with an amyloid nucleation score of 3.62 ± 0.12.

Substance YMLMMALFQRC displayed an amyloid nucleation score of 2.75 ± 0.15.

As for LLYTSWLV, the amyloid nucleation score was found to be 0.272 ± 0.41.

LMLIVQDPCLSEINFKLDSG displayed an amyloid nucleation score of 4.59 ± 0.11.

With GGLCYEQNFYRYKKRRVLEL, the amyloid nucleation score turned out to be 3.47 ± 0.12.

YIPCDKANRSFENC gave an amyloid nucleation score of 1.19 ± 0.35.

Substance EYSPCPSCT displayed an amyloid nucleation score of 3.966 ± 0.037.

CVSSARNIHFNGVVKCVRYR: the amyloid nucleation score was 2.79 ± 0.054.

As for CKIEGWCTGCGSRQLRARAE, the amyloid nucleation score amounted to 1.09 ± 0.34.

In turn, MLVNRFGGVA registered an amyloid nucleation score of -0.402 ± 0.38.

NLECLYKLFPDFASLIRLCV yielded an amyloid nucleation score of 0.185 ± 0.8.

Turning to KSVASVMVYYALRIPYHIEC, the amyloid nucleation score result was “inactive”.

GQYLVSKFGIEHTA: the amyloid nucleation score came out at 0.307 ± 0.17.

YSLMCQFHSSPISFFLCWLP: the amyloid nucleation score was 8.157 ± 0.071.

As to YQSDK, the amyloid nucleation score entry was “inactive”.

On to WFMRDMEYFPDGLGDYG, for which the amyloid nucleation score entry was “inactive”.

On to HIAID, for which the amyloid nucleation score worked out at 0.401 ± 0.56.

With ILHPADQNSCT, the amyloid nucleation score was -1.26 ± 0.34.

As for RQSFVVDNNELCKFTCDYSC, the amyloid nucleation score is 7.376 ± 0.043.

The substance GMIRLLGLFIKKRWRSNTCL came in with an amyloid nucleation score of -0.238 ± 0.5.

RNGFAIRITANHYTQLVYDL displayed an amyloid nucleation score of 3.82 ± 0.094.

With CGLWASNSSTFRDFESNESN, the amyloid nucleation score is -0.51 ± 0.63.

In turn, LYLYGDYV showed an amyloid nucleation score of 7.65 ± 0.079.

LFEFSFITPYGV registered an amyloid nucleation score of -0.531 ± 0.44.

In the case of VCRLFLYGQWLVGRRANSYS, the amyloid nucleation score is -0.731 ± 0.39.

Regarding LLPSLWV, the amyloid nucleation score is -0.437 ± 0.63.

Take YWLECILSGVYHDGYDSYSL: the amyloid nucleation score result was “inactive”.

Substance TTENNCLVREKVVYGWMWSS yielded an amyloid nucleation score of 0.149 ± 0.25.

As for RFVVWRHFSWIATMLSTIPV, the amyloid nucleation score came out at 1.13 ± 0.35.

Substance RIVMLGFVN showed an amyloid nucleation score of -1.44 ± 0.54.

The substance FLLCIRLRVNNNVRNN showed an amyloid nucleation score of -0.763 ± 1.1.

With MNIYEVSKYENGY, the amyloid nucleation score was 3 ± 0.071.

As to LEGMFLPGFFSCVRFLWL, the amyloid nucleation score is -1.51 ± 0.78.

Substance KVISSVSEPLSKKEDYE registered an amyloid nucleation score of -0.706 ± 0.3.

As to VLAILVTNLRLSSWFQSHMM, the amyloid nucleation score was determined as 0.837 ± 0.52.

Turning to VNDKFHFILF, the amyloid nucleation score was found to be 0.019 ± 0.8.

In turn, FLAILWLFMLGKVSGCVDKW showed an amyloid nucleation score of -0.155 ± 0.49.

DKYNTVRLCP came in with an amyloid nucleation score of 0.987 ± 0.5.

For AYVRNAIGTMFLLALSHRGD, the amyloid nucleation score was -0.345 ± 0.48.

As for QGCPFWYNYVLVYSVSGGIS, the amyloid nucleation score was 2.36 ± 0.14.

With CHQVI, the amyloid nucleation score stood at 0.383 ± 0.74.

As to NMYNLGFLSYYLKISGYLLD, the amyloid nucleation score is -1.85 ± 1.

For the substance TLFSMVNSTLNGWWIMT, the amyloid nucleation score amounted to 6.84 ± 0.061.

On to GRSGVLLQRGGFVKNSRCEK, for which the amyloid nucleation score worked out at 0.026 ± 1.1.

As for FMGSSIGLSSCPLEDTYVLP, the amyloid nucleation score is -0.403 ± 1.

For DVSLNRGVRPF, the amyloid nucleation score is -0.123 ± 0.76.

With FHRPWTFLLLNLPTRGFFLR, the amyloid nucleation score entry is “inactive”.

As for IFFVSDVESNIGRWLRRCFP, the amyloid nucleation score was 5.465 ± 0.054.

ICWPSLLYAPGTVKMSTERV yielded an amyloid nucleation score of 0.706 ± 0.6.

With ATVRLHNGFG, the amyloid nucleation score is 0.127 ± 0.31.

Turning to DSSIAYFIGVLASIGADEDR, the amyloid nucleation score amounted to 6.452 ± 0.061.

Consider CSHTVFGSVCGFTLFQVH, for which the amyloid nucleation score was determined as 4.06 ± 0.13.

As for HHIGGMIS, the amyloid nucleation score is -0.09 ± 0.3.

The substance SMQFFFRS displayed an amyloid nucleation score of 6.51 ± 0.072.

LSGVFNSFCLRGNGREWVAL registered an amyloid nucleation score of -0.034 ± 0.32.

As for FIERILAVSCFAYFVKPSTV, the amyloid nucleation score came to 5.44 ± 0.042.

For the substance LNYNYTQDR, the amyloid nucleation score was -0.751 ± 1.1.

KRRSLGLLISLVTMGDK displayed an amyloid nucleation score of 0.917 ± 0.31.

LAFMRLPAVVLSSTLSFMKS gave an amyloid nucleation score of 0.789 ± 0.66.

With ICIFHDWVIIICCSIRMRCL, the amyloid nucleation score was -0.823 ± 0.63.

DCSLELVNRRGSGIVQCAGY showed an amyloid nucleation score of 1.1 ± 0.38.

RLYKRLR returned an amyloid nucleation score of -1.19 ± 1.1.

STMRSWAAC registered an amyloid nucleation score of 4.25 ± 0.091.

WCGYMNSSIKSRYSTYTFRS: the amyloid nucleation score came to 2.13 ± 0.088.

Substance CQRTTGALTSGWKPDDIGSV showed an amyloid nucleation score of 0.192 ± 0.46.

Consider YFSFTGPHLDVA, for which the amyloid nucleation score was -0.937 ± 0.34.

VGYLRELLYAEGT registered an amyloid nucleation score of -0.476 ± 0.35.

The substance INVAQALLSAPA came in with an amyloid nucleation score of 3.81 ± 0.062.

In turn, RMLLIGIRCLIMSWHMLHN came in with an amyloid nucleation score of -0.029 ± 0.37.

As to YRATYVLRVAFSWVVSCPGD, the amyloid nucleation score is -0.377 ± 0.41.

The substance FWYENP returned an amyloid nucleation score of 2.14 ± 0.16.

As to GEISIGMNLTGEKTSSSGFK, the amyloid nucleation score was -0.679 ± 1.1.

VLEKRFIRL: the amyloid nucleation score was -0.785 ± 0.46.

Take GNNFIF: the amyloid nucleation score entry was “inactive”.

FLCYKISSFVSICKQQEAHA registered an amyloid nucleation score of -0.064 ± 1.1.

In turn, CVMTRRSTKCFSMSLLSIWL gave an amyloid nucleation score of 6.496 ± 0.056.

For NFKTI, the amyloid nucleation score result was “inactive”.

PKYTDCCFFNLILIGWSVFP registered an amyloid nucleation score of 5.272 ± 0.052.

For the substance STWKNDHTHSCASWAKVCIT, the amyloid nucleation score is -0.138 ± 0.34.

For the origin of these results see the supplement of paper PMC12042874.
